Experimental data taken from patent EP1098979B1 (Boehringer Ingelheim International GmbH, dated 2007).

How the values were obtained:
[1] = biological target: human fibroblast activation protein alpha (FAP) on the cell surface (human) (UniProt Q12884); assay: flow cytometry, MF-SH cells with endogenous FAP, antibody at 4000 ng/ml
[2] = biological target: human fibroblast activation protein alpha (FAP) on the cell surface (human) (UniProt Q12884); assay: flow cytometry, HT-1080FAP clone 33 cells, antibody at 0.8 ng/ml, FITC anti-human IgG
[3] = biological target: human fibroblast activation protein alpha (FAP) on the cell surface (human) (UniProt Q12884); assay: flow cytometry, HT-1080FAP clone 33 cells, antibody at 4.0 ng/ml, FITC anti-human IgG
[4] = biological target: human fibroblast activation protein alpha (FAP) on the cell surface (human) (UniProt Q12884); assay: flow cytometry, HT-1080FAP clone 33 cells, antibody at 20.0 ng/ml, FITC anti-human IgG
[5] = biological target: human fibroblast activation protein alpha (FAP) on the cell surface (human) (UniProt Q12884); assay: flow cytometry, HT-1080FAP clone 33 cells, antibody at 100.0 ng/ml, FITC anti-human IgG
[6] = biological target: human fibroblast activation protein alpha (FAP) on the cell surface (human) (UniProt Q12884); assay: flow cytometry, HT-1080FAP clone 33 cells, antibody at 500.0 ng/ml, FITC anti-human IgG
[7] = biological target: human fibroblast activation protein alpha (FAP) on the cell surface (human) (UniProt Q12884); assay: flow cytometry, HT-1080FAP clone 33 cells, biotinylated antibody at 1.6 ng/ml, streptavidin-FITC
[8] = biological target: human fibroblast activation protein alpha (FAP) on the cell surface (human) (UniProt Q12884); assay: flow cytometry, HT-1080FAP clone 33 cells, biotinylated antibody at 8.0 ng/ml, streptavidin-FITC
[9] = biological target: human fibroblast activation protein alpha (FAP) on the cell surface (human) (UniProt Q12884); assay: flow cytometry, HT-1080FAP clone 33 cells, biotinylated antibody at 40.0 ng/ml, streptavidin-FITC
[10] = biological target: human fibroblast activation protein alpha (FAP) on the cell surface (human) (UniProt Q12884); assay: flow cytometry, HT-1080FAP clone 33 cells, biotinylated antibody at 200.0 ng/ml, streptavidin-FITC
[11] = biological target: human fibroblast activation protein alpha (FAP) on the cell surface (human) (UniProt Q12884); assay: flow cytometry, HT-1080FAP clone 33 cells, biotinylated antibody at 1,000.0 ng/ml, streptavidin-FITC
[12] = biological target: human fibroblast activation protein alpha (FAP) on the cell surface (human) (UniProt Q12884); assay: flow cytometry, HT-1080FAP clone 33 cells, biotinylated antibody at 5,000.0 ng/ml, streptavidin-FITC
[13] = biological target: human fibroblast activation protein alpha (FAP) on the cell surface (human) (UniProt Q12884); assay: competition flow cytometry, HT-1080FAP clone 33 cells, unlabelled competitor at 1.00 µg/ml against 1 µg/ml biotinylated cF19; signal of bound biotinylated cF19
[14] = biological target: human fibroblast activation protein alpha (FAP) on the cell surface (human) (UniProt Q12884); assay: competition flow cytometry, HT-1080FAP clone 33 cells, unlabelled competitor at 3.16 µg/ml against 1 µg/ml biotinylated cF19; signal of bound biotinylated cF19
[15] = biological target: human fibroblast activation protein alpha (FAP) on the cell surface (human) (UniProt Q12884); assay: competition flow cytometry, HT-1080FAP clone 33 cells, unlabelled competitor at 10.00 µg/ml against 1 µg/ml biotinylated cF19; signal of bound biotinylated cF19
[16] = biological target: human fibroblast activation protein alpha (FAP) on the cell surface (human) (UniProt Q12884); assay: competition flow cytometry, HT-1080FAP clone 33 cells, unlabelled competitor at 31.66 µg/ml against 1 µg/ml biotinylated cF19; signal of bound biotinylated cF19
[17] = biological target: T1, recombinant membrane-bound human FAP solubilised in detergent extracts of transfected cells (293FAP 1/2, … (human, UniProt Q12884 1-760)); assay: sandwich ELISA, cF19 as capture antibody
T1 construct: Same protein as m5, but isolated from the cells; also called recombinant human FAP
T1 sequence (looked up): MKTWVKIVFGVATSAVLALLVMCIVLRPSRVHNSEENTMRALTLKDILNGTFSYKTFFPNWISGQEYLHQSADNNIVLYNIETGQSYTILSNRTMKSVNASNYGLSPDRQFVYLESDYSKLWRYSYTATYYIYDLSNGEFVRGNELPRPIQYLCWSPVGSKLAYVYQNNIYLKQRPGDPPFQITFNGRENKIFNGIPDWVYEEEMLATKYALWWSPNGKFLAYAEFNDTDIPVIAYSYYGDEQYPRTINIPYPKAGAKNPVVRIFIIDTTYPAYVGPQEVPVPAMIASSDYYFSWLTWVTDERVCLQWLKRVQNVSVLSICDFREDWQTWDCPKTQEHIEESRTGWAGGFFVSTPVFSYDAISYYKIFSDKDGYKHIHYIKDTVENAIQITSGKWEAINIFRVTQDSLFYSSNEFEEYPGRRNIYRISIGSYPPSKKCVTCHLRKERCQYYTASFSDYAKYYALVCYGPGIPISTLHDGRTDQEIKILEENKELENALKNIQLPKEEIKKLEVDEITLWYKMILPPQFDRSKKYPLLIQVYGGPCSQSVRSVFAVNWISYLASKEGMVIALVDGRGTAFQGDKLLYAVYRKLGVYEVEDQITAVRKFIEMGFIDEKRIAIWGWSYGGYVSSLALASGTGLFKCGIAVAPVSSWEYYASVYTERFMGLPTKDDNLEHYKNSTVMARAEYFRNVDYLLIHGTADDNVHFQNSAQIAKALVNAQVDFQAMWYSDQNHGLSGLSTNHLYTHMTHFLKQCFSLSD

[18] = biological target: human fibroblast activation protein alpha (FAP) on the cell surface (human) (UniProt Q12884); assay: flow cytometry, MF-SH cells with endogenous FAP, antibody at 500 ng/ml
[19] = biological target: human fibroblast activation protein alpha (FAP) on the cell surface (human) (UniProt Q12884); assay: flow cytometry, MF-SH cells with endogenous FAP, antibody at 1000 ng/ml
[20] = biological target: human fibroblast activation protein alpha (FAP) on the cell surface (human) (UniProt Q12884); assay: flow cytometry, MF-SH cells with endogenous FAP, antibody at 2000 ng/ml
[21] = biological target: human fibroblast activation protein alpha (FAP) on the cell surface (human) (UniProt Q12884); assay: flow cytometry, HT-1080FAP clone 33 cells, 1 µg/ml biotinylated cF19 without competitor (0.00 µg/ml)
[22] = biological target: T1, recombinant membrane-bound human FAP …; assay: sandwich ELISA, detergent extract of 293FAP 1/2 cells on cF19-coated plates, HRP-streptavidin

hIgG1 (human immunoglobulin, IgG1 subclass), negative control (antibody)
Mean fluorescence intensity [1]: 0.6
Mean fluorescence intensity [2]: 0.12
Mean fluorescence intensity [3]: 0.12
Mean fluorescence intensity [4]: 0.12
Mean fluorescence intensity [5]: 0.12
Mean fluorescence intensity [6]: 0.12
Mean fluorescence intensity [7]: 0.3
Mean fluorescence intensity [8]: 0.2
Mean fluorescence intensity [9]: 0.2
Mean fluorescence intensity [10]: 0.2
Mean fluorescence intensity [11]: 0.2
Mean fluorescence intensity [12]: 0.2
Mean fluorescence concentration [13]: 9
Mean fluorescence concentration [14]: 11.3
Mean fluorescence concentration [15]: 9.8
Mean fluorescence concentration [16]: 10.3

B1: chimeric F19 antibody (cF19), mouse F19 variable regions joined to human kappa and gamma-1 constant regions (antibody, human IgG1, kappa, V domains shown)
VH: VQLQQSGPELVKPGASVKMSCKTSRYTFTEYTIHWVRQSHGKSLEWIGGINPNNGIPNYNQKFKGRATLTVGKSSSTAYMELRSLTSEDSAVYFCARRRIAYGYDEGHAMDYWGQGTSVTVSS
VL: DIVMSQSPSSLAVSVGEKVTMSCKSSQSLLYSRNQKNYLAWFQQKPGQSPKLLIFWASTRESGVPDRFTGSGFGTDFNLTISSVQAEDLAVYDCQQYFSYPLTFGAGTKLELKR
notes: Biotinylated in some assays; also called biotinylated cF19
binding result [17]: binds
Mean fluorescence intensity [18]: 1.8
Mean fluorescence intensity [19]: 2.4
Mean fluorescence intensity [20]: 3.3
Mean fluorescence intensity [1]: 3.6
Mean fluorescence intensity [2]: 0.14
Mean fluorescence intensity [3]: 0.17
Mean fluorescence intensity [4]: 0.43
Mean fluorescence intensity [5]: 1.63
Mean fluorescence intensity [6]: 6.65
Mean fluorescence intensity [7]: 0.3
Mean fluorescence intensity [8]: 0.5
Mean fluorescence intensity [9]: 1.3
Mean fluorescence intensity [10]: 4.5
Mean fluorescence intensity [11]: 18.1
Mean fluorescence intensity [12]: 36.5
Mean fluorescence concentration [21]: 11.2
Mean fluorescence concentration [13]: 7.5
Mean fluorescence concentration [14]: 4.8
Mean fluorescence concentration [15]: 1.3
Mean fluorescence concentration [16]: 1.2

B2: LAHC (reshaped human anti-human FAP monoclonal antibody: F19 human reshaped light chain variable region version A with heavy chain variable region version C, … (antibody, V domains shown)
VH: QVQLVQSGAEVKKPGASVKVSCKTSRYTFTEYTIHWVRQAPGQRLEWIGGINPNNGIPNYNQKFKGRVTITVDTSASTAYMELSSLRSEDTAVYYCARRRIAYGYDEGHAMDYWGQGTLVTVSS
VL: DIVMTQSPDSLAVSLGERATINCKSSQSLLYSRNQKNYLAWYQQKPGQPPKLLIFWASTRESGVPDRFSGSGFGTDFTLTISSLQAEDVAVYYCQQYFSYPLTFGQGTKVEIKR
notes: The name joins light version A (LA) and heavy version C (HC); also called biotinylated LAHC; BIBH 1
binding result [22]: binds
